Data from a protein production outcome set (Wang et al. 2014).

Experiment: label from the status in PepcDB records
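Further: failed if final PepcDB status was selected cloned or expressed and not failed if soluble or beyond.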

Row | Sequence | protein production
1 | MSVQTPDFSQQQQFLELTQQTIQNQQFDRLVLSQYKGTEPELEKVTFRMVELQQQFKLSALYHYTTKDVTKNYDLNDAIGVIETLIANCKQANLFGSVIEAQLKKNKKKAMLNVQQLSAEKYNNNVGQQHNREKQRYIDTMAPFLQYLGITEPNGNIIPAMARKWKQINKFIEIFSHAYEQIELKDDSIKIVDFGSGKGYLTFALYDYLQQQTRTAPQMTGVELRSNLVEFCEDVAKKAGFDHLDFFEGDVRTYAPEHLDVMIALHACDVATDFAIHTGIRLNASMIMCAPCCHKELRPQLQSPKVLKPMLQFGIHAGQQAEMLTDTLRALLLKAYGYDVKVFEFVSLEHTSKNKMILATKRQTIQQPDPQILEQIQALKQMYGIQKQTLELLLQDQITIDNVGCKC | failed
2 | MSVSPSPFNGAEHPIKGIALICLAVLLFASHDTLSKYLSAFYPIVMVVWARYVVHTLLMLVVFVPRSGFSAVVRTKRPGLQLLRALCLIGTSLLFTTGLRYIPLAEATAVNFLAPLLVTALSVPFLGERVSRAQWLAVLAGFVGVLIVVRPGGALFTPAILLPLGSALCFGFYQLLTRKLSGVDSPTTSNFLTGILNSLIMSALLPFFWSTPTLVHGLFMIGLGTCGMLGHMLLTQAFRHAAPAMLAPFSYGQILFAGLFGYLIFDHTPDQYALVGIAVICLSGLAVAWAQRKR | failed
3 | MSVTSRYRDAWEGFWNEASGDRGAVFWDAEPTLTAGRHLAHFEPHLTDAALPLIDLGCGNGTQTRYFAERFPHVVGADLSAAALAHARHADPGGLAAYRQLDAADKAEAQALHAELGDANVYVRGVLHQCEPDDRQPLADALAALLGERGRAFLVEPSQAAKTVLMGLAQGPAGPPAKLAPVLRHGLTPGAVPDEAVPEYLRAAGLTVLASGELPLVTTEYTADGTRIELPSAWVVAGTA | failed
4 | MSVVDPSLIERIIRDDVRAMGAYHVPDSHGLVKLDAMENPYRLPPALRSELAARLGEVALNRYPVPSSEALRAKLKEVMQVPAGMEVLLGNGSDEIISMLALAAARPGAKVMAPVPGFVMYAMSAQFAGLEFVGVPLRADFTLDRGAMLAAMAEHQPAIVYLAYPNNPTGNLFDAADMEAIVRAAQGSVCRSLVVVDEAYQPFAQESWMSRLTDFGNLLVMRTVSKLGLAGIRLGYVAGDPQWLEQLDKVRPPYNVNVLTEATALFALEHVAVLDEQAAQLRAERSRVAEGMAAHGGVTVFPSAANFLLARVPDAAQTFDRLLARKVLIKNVSKMHPLLANCLRVTVSTPEENAQFLEAFAASLQD | not failed
5 | MSVWLLQMKTNAIITDITKSIVKMDRILVYRHTNPDPDAIGAQFGLVALLKAAYPEKLVVAMAPVPGHLAWIDTTDEQLVTPQATDLVIAVDCANHERLAGELPTGAFVIKIDHHPNHDPYGQLNWVDETYSSCSEMIYELAQAGCFTVTAAVATKLYAGIIGDTVRFSTPETSTRTLKIASALAATDIDIATISHHEMDLTPALSKLYGYVLSEQTIEPSGLAHVVLPQRIFSDLSLEYGDEDALVPLPGNLTTVKVWLFFIETPQGQYRVHFRSKAINVNAVAKAFNGGGHPLASGAFVPDLATVGQVIEQMQAQVLAATAVDLEHHHHHH | failed
6 | MSVYHHILLAVDFSSEDSQVVQKVRNLASQIGARLSLIHVLDNIPMPDTPYGTAIPLDTETTYDAMLDVEKQKLSQIGNTLGIDPAHRWLVWGEPREEIIRIAEQENVDLIVVGSHGRHGLALLLGSTANSVLHYAKCDVLAVRLRDD | not failed
7 | MSWSKVKYFFFDTPEEKEAAQYGYEKEQTDMKKQQDPPEQQDVTFPKAQPKQNVVSIETAKQSSKVVLLEPRTYSEAQGIADHLKGRRAVVINLQRMSTDQAVRIVDFLSGTVYAIGGDIQKIGPKTFMCTPENVDIVGAISELFGEEEETNIKRWLEHHHHHH | not failed
8 | MSWTVVYSAQAKQDLRNIFEYIAHSLCSPDAAKSQTRRIMAEIHSLDEMPLRYRIYDDEPWRSQGLRFFPVDYYLVFYLPVASANTVKIVRIMYGGRDVKKHLEEELLEHHHHHH | failed
9 | MSYEFYGKTEQEAIKKAMRDLELKEGEFDVEILDKERVGFLFKKEMIKIRVSPHAKEVKKDDFEIKIGDEICDKILEFVKEMLIKMGYSVHLTIEPKEGGYVKISIETDSPNILIGREGKNLDSLQLLTNVYASKLIGENGAFNRVILDIGDYRERFKSRFINLAINSFHKVKRTRRSILLPSMNPFERRIVHTTLNRYSDIKTESEGDGNIKRIRVSYVRNNRYGINNSRGYQKRDIGFKK | failed
10 | MSYLEYTVKSTPSGLRKILYMNWPLTLLLISVASAGFLMLYSVAGGSFSPWAEPQIKRFMAGLVVMTAVAMVPIWFWRNMAAVAYGGSLVLLVMVELFGAVGMGAQRWIDLGFMRLQPSELTKITLVMVLAAYYDWLPGKKTSRPLWVLVPVLIILVPTALVLKQPDLGTAILLLSAGGALMFLAGVHWAYFAAVIAAGVGLITAVFKSRGTDWQLLKDYQFRRIDTFLDPSSDPLGAGYHITQSKIALGSGGWSGRGFMQGTQSRLNFLPEKHTDFIFTTLAEEFGFIGGISLLSLYALIIAFCVATALATRDRFSSLVTLGIAVNFFLFFAVNMSMVMGLAPVVGVPLPMVSYGGSAMLVLLVAFGLVHSAHIHRPR | failed
11 | MSYLLRSDPVSRIHPEPQSLTSFDHFDLLPDSLLLLIFDKVADVKDLGRCCIVSRRFHSLVPFVENVLVRVDCVISDDDSSSSDENHRFSLNTASISDAGGAGGSFSALFRLVFAPIFKPFQMLGQILGPKRSSSSFDASFSAINDEIGVTHHSPTQVLKNFGEIRFLKIELPTGELGIEDGILLKWRADFGSTLDNCMILGASSVIQSNSVKNHENSVDEDNGNIPESFYTNGGLKLRVVWTISSLIAASARHYLLQPIINEHKSLDRLVLSDADGQGVLCMNREQLEELRVTPLSASSASKRTLVPALNMRLWYAPELDLPDGTVLKGATLVAIRPSESKKEVCDASWLSDAFEEPFGTVAKMLIKRRTYCLEMNSF | failed
12 | MSYNVAILMSTYNGMDYLREQIESIRSQTYKQWNLYIRDDGSSDNTIDLIKTFVHQDTRIHFINADKQVNRGVKRSFLNLLSSVKADFYMFCDQDDYWLPNKVKLTLDAMISDYHNKPRLVFTNMNLVDSNLKVLDKASLSAVNISYWTSKDQLMFDNIVTGCTVMINNQLKQYVFPISAKKIVMHDWYIAQLASQLGDIQYVTDPTILYRQHESNQVGVNKSLFGKVKKLARFNDFQTGVILQISQGRLTQKKSQVVFSKTTQAFLNWNFTCPLILKVLPIIQNNFKKHTWPGTIALNLALLRRKKS | failed
13 | MSYRGLPAMTRNDLTIYDDVAAQWWSDDIRWVRTLKAMVPGRLAFFDRKIDWRDKRVLDLGCAGGFMAEALCERGAIVTGIDPAAQAIDAAREHAELDGHDIRYDVGKGETLPYADDSFDAVVCVDVLEHVEDLDLVLSEVARTLVPGGMFFFDTINRNPLARFATITMAEDILRLLPKGTHDPDMFIKPGELHAALGRAGFVPGR | failed
14 | MSYSPSLKEIIAILQKYTSKNYQSNCKTRPDGKLELSLNGVFEEIVKTPGKTRYVTHKQLDQKLKDFKQDLMVELHDTFATKTDLKESEARINQKLEALIQIVMVQGEQIKVHGEQINKLTQAVEKQGEKIEAQGQQIQKVNETLNFVVESLGSIHKRLDSMEGRLDSMENRLDKLESKLEHHHHHH | not failed
15 | MSYVLLLLGFALLIKGADFFVDGSSSIARLLNVSPLLIGLTIVAFGTSSPEATASIIAALNGNPDVALGNVIGSNMFNITLVVGLTALLSPLIVTNATLRKEIPFTLLASIALYIFINDQMIEGAVESTLSRSEGLILLLIFCVFLYYIFEVARTSPREQKIVQDFAIKPTWRKNIFLSILGLAMIIGGGELVIRHSTAIAFSHGMSETLVGLTIVAIGTSLPELVTSLTAALKKESEIALGNIVGSSIFNIFFVLGTAATITPMHVDSRVVVDLLLLIFLTLLLLVFSRTRYTVGKYEGLILASFYIGYMVYIIWRN | failed
16 | MTAAGFNSILCLRQLVRLNRRQYSAPAKSVLSGSQTNDQATPPPTSKSADKMRGWQLHNYGDIDELQLSEMLKIPQIRCSNECLVRIRATAVNPIDLAMLRGYGATVLNKMRCQPGDGIEFPLILGREFCGELVQTGMGVSLPLGSRVWGVVPLQATIGSHAEYVAVPSYCLAPAPKELDDYEAASVLYAGLTAWSGLYITGGLGGPCGATTASGGGAHKRVLVLGGSGGVGTLAIQILKSQKVQVLATCSENAIEMVRNLGADLVVDYNNPQAMEELCKYAPYDIVLDCAGQGGQKAAESKYDFRQYITFSSPLLANIDKQGLGVGALKNVFDLFQTNVRSVTQRGGLVKWGFFSPAPQGIQFLQKLVEQRKLMPLIDSSYGFSELPKAFEKMKSGHLRGKIVVKLREETGD | failed
17 | MTAAILVTGATGKLGQRVVNRLLQKQAKVRVLTRRREDALKLWGDSVDIAEGNFSDPASLKGASRDVDRVFLLSPIGKTLAADQNAVVDAALSAGVSQIVKLSGSDWTLKNAARSISGTAHAAVEKHLAETGIAHTVLRPNAWMQVALEPVVAALRNGEDVPARFGNAAVSFIDADDIADVAVEALSASAPPAGTLVLTGHEALAALGIARIAARILHRPVGVSHQSASTFPAHIGGFEQKAIAEFGQLIGEGLAASTTDIVEQIIGHPPRSVENYLRARLAVAQQGDHSEGEKTWR | failed
18 | MTAALSSNFLLVAFFLYLAATIFYAVSIMGKKWRNKEGEMKGNRWGTFGYYSAIIALLFALGYFITRWMVAGFAPVSNMFEYVTFFGICIGLAFVIINAIYRSNILGLFTMPTVMLMIAYASVFPSEVAPLIPALQSNWLALHVTTVALGQGILAVSFASGLVYLIRTIDYSIQSWKTFWLEFILYSVITVVGFILITYTFQAMNYEAKFNYVNENDVEATMEYHLPPIVGPHEGQLISETGNQPLVNMPAWIKSDQLNTVIWSFLVGLVLYLLLYLVFRKPVGAILQPIVKRVSPQLVDEISYRAIAIGFPVFTLGGLIFAMIWAQIAWTRFWGWDPKEVWALITFLFYAAYLHLRLSKGWHGERSAWLCVIGFAIIMFNLVFVNLVIAGLHSYAGGM | failed
19 | MTADGRGRIDAAFRGRLGRFVLDASLSVPATGVTAIFGPSGCGKTTIARCIAGLQRLSDGFCAIDGEIWQDGMAFRPAHRRPVGYVFQEPSLFPHLSVRGNLLYGAPKAAATSIGFDEVVELLGLTALLGRSPHRLSGGERQRVAIGRALLSQPRLLLMDEPLAALDRTTKNEILPFLERLHERLSLPVLYISHDMAEIERFADYLVLMERGRVVGAGPLHILQSDPALPLAYSRDAAVSIDGLVEAYDERYGLLTLAVNGGLLHVPSHRIAVGARQRLRIAASDVSIVRARPSESSILNILPARIVTQSPPGAGEVTIVLGLDSDGSGAPILSRISSRSRDLLGLSDGMAVFAQVKGVSLVRASGCAIGNMGPTAPGQLDHCSTQDTGVRSEAGTTAMPIDFAEIDPNRVAAILYRPQDDLDTLLADFAQDLVRAGERIGGIVQRNIKDGSGCQVGMQAIDLMTGREISICQPLGSGAMACKLDAAGLADASVAVASAIAQDVDLIVINKFSKQEAAGRGLRDELAGAIAAGIPVLTAVPEKCFEAWISFTGGIGTTLLCERQVIEAWWRDTSSRMKRMREDHDAVVAQCIEISGALPLVQRVVARQLVVTHDLPLDPERAEAEVVVRGVVERTNVEVLDGAADEADEAPDAGFPVGPERIERLPDIGPVPRRHEALQVEREVLSPDACLQRSAGERVDVFKEGKTKVGTVLVDRGDAELVEGPIVLELHEGAPVLVEMNVGVDLQTLYEIAVRGRVAGAERRCAIGLEAFAQRRPQRDVAFRIGGPKRDVFEPVKRFGTQPGIGKDRPVLCPAVRLDRRPLGDRSVLGPREPDAGAKGRKRQNDPEVAHIAPCQHRRTSPHLASARDALFGPREWISATYPPGNMTNAADRLLDV | failed
20 | MTADRPLLGIFLMLGFCVLAPMGDALAKLLGGTMPTMQLLLVRFAIQAVILIPLVQATGRPWQLRGRLLRLTALRTLLHIVGIWAMFTALRYLPLADAIAIAFVMPFIMLLLGKYVLGEEVGPRRLGACIVGFAGTLLVIQPSFAEVGLPALLPLLVAVVFALFMLVTRQLAKDTDPIALQAVSGVMACVALTPVLLIGHAAGVEALTLVTASGTTLWLLLAIGVLGTAAHLLMTWSLRYAPSATLAPMQYLEIPVATAIGWLIFHDLPNGLAALGILITMAAGLYVILREQATARSAATETSG | failed
